The record followed here is US20170189519A1.

What all share (details): remark: other sources report otherwise
In test [1] the target is s127H1-t2-cl18long. Put plainly: SEC-MALS with Fab fragments, protein of fraction 3. For orientation: Size exclusion chromatography separates by hydrodynamic size, large species first.
The target in test [2] is s127H1-t2-cl18long. Kind of test: SEC-MALS with Fab fragments, protein of fraction 3 (ca. 110 kD alone).
Test [3] has as its target 26H1. Put plainly: ELISA, coated CR6261, P. pastoris culture medium. On the technique in general: An ELISA detects its analyte on a solid surface through an enzyme-linked reagent.
The target of test [4] is s127H1-t2-cl18long.

B1: Fab fragment of CR6261 (Fab, V domains shown)
VH: EVQLVESGAEVKKPGSSVKVSCKASGGPFRSYAISWVRQAPGQGPEWMGGIIPIFGTTKYAPKFQGRVTITADDFAGTVYMELSSLRSEDTAMYYCAKHMGYQVRETMDVWGKGTTVTVSS
VL: QSVLTQPPSVSAAPGQKVTISCSGSSSNIGNDYVSWYQQLPGTAPKLLIYDNNKRPSGIPDRFSGSKSGTSATLGITGLQTGDEANYYCATWDRRPTAYVVFGGGTKLTVLG
B1: in test [1], the Fab fragments bound per trimer (Fab fragments) was 3. In test [2], this molecule displayed a size of the complex formed of 215 kD.

B2: CR6261 (antibody, V domains shown)
VH: EVQLVESGAEVKKPGSSVKVSCKASGGPFRSYAISWVRQAPGQGPEWMGGIIPIFGTTKYAPKFQGRVTITADDFAGTVYMELSSLRSEDTAMYYCAKHMGYQVRETMDVWGKGTTVTVSS
VL: QSVLTQPPSVSAAPGQKVTISCSGSSSNIGNDYVSWYQQLPGTAPKLLIYDNNKRPSGIPDRFSGSKSGTSATLGITGLQTGDEANYYCATWDRRPTAYVVFGGGTKLTVLG
B2: in test [3], the CR6261 binding signal came to 78800. The Kd (in general, the equilibrium constant for the complex coming apart) in test [4] came out at 0.7 nM.
